Measurements as given in patent US20140099668A1.

Target: ERK (extracellular-signal-regulated kinase; mitogen-activated protein kinase)
Assay: cell-based or functional assay

B1: ERK decoy protein (ER localization signal, a c-Myc epitope tag, and the ERK polyligand of SEQ ID NO:1) (designed binder, part only; not given: ER signal and c-Myc tag, not shown: small tags and cut ends)
chain, part: MPKKKPTPIQLNPAAKGRKPRDLELPAAAATGPLAPGPFGAGAYSPTAPTYSPTAPKKKGGGGAPRAPGGRRAGAGRRPRAPAKLSFFFPS
  ERK activity in the endoplasmic reticulum (phosphorylation of myelin basic protein), Cos7 cells with M1-RasV12: 60%
  decrease in transformed foci formation, NIH3T3 cells transfected with H-RasV12: 50%
